Measurements as given in paper PMC10992996, “Human CRB1 and CRB2 form homo- and heteromeric protein complexes in the retina” (Life Science Alliance, 2024).

Molecular target: T1, CRB1-FLAG p.C1181R (human, UniProt P82279 26-1406, p.C1181R)
T1 construct: Made by site-directed mutagenesis of m1; also called CRB1 p.C1181R; CRB1-FLAG MT; source: HEK293T, transfected, in lysate; not shown: Strep-Strep-FLAG, N-terminal, kept
T1 sequence (looked up): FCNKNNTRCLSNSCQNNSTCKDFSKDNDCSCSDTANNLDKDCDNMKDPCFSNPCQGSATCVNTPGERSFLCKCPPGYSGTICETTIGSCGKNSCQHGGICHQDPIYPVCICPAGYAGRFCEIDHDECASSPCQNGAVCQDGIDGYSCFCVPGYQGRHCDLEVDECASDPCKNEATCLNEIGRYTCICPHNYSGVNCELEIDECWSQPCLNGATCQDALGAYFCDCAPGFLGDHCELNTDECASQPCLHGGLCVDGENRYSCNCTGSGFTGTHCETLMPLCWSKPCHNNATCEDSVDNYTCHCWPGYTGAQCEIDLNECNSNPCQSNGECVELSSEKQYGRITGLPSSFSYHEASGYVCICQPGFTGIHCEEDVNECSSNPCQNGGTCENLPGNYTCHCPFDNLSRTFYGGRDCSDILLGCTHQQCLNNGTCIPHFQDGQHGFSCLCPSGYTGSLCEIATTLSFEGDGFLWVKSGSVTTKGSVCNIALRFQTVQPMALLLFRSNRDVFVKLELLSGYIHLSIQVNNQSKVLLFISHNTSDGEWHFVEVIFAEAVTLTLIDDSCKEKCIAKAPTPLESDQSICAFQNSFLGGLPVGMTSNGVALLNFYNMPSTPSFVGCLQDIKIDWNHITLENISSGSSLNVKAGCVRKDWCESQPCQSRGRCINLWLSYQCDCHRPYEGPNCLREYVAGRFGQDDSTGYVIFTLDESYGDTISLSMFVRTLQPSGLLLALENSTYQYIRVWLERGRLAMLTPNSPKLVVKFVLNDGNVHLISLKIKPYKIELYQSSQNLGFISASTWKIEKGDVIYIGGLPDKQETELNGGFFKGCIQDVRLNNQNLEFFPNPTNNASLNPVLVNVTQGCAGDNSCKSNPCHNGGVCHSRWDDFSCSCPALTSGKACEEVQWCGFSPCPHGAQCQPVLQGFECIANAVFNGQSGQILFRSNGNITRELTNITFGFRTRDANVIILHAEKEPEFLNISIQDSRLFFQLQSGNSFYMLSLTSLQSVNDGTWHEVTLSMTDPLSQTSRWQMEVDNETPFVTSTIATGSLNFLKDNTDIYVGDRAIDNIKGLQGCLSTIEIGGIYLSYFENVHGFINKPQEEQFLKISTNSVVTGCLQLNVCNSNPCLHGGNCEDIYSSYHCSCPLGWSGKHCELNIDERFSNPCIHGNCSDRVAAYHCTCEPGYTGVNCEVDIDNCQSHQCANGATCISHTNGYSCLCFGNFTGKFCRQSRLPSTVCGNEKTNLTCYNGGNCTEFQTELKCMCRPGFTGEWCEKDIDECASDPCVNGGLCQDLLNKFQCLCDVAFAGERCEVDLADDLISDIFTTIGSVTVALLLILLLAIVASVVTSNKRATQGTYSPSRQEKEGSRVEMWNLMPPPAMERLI
Assay: co-IP; HEK293T cells co-transfected pairwise with a FLAG and an HA construct, 48 h; lysis in TBS (30 mM Tris-HCl pH 7.4, 150 mM NaCl) with 0.5% Nonidet P40; FLAG-IP on ANTI-FLAG M2 Affinity Gel 60-90 min at 4°C, elution with FLAG peptide; Western blot with HA and FLAG antibodies; for mutants HA/FLAG signal in eluates relative to WT, three biological replicates
Conditions: partners not purified

B1: Human canonical CRB2 (Crumbs homolog 2) (natural protein)
chain: not shown
notes: Crumbs homolog 2, human, cDNA NM_173689; Stood as bait (FLAG copy) and as prey (HA copy) in the pairwise co-IP matrix; each copy carries only one of the two tags; The FLAG copy was the bait of the mass spectrometry pull-downs; also called CRB2-FLAG; CRB2-HA; source: HEK293T, transfected, in lysate (co-IP); HEK293T, transfected, FLAG-IP on beads, washed and purified with 0.01% SDS (retina …)
percent reduction of the interaction relative to CRB1 WT: 19%
